Here are results for eight molecules from US20220202905A1, “COMPOSITION FOR PREVENTING OR TREATING NEUROTROPHIC KERATITIS WHICH CONTAINS PACAP PEPTIDE OR STABILIZED PACAP PEPTIDE” (SENJU PHARMACEUTICAL CO., LTD., priority 2019, published 2022).

Square brackets hold non-standard residues; d marks the D form. Ala(1H-tetrazol-5-yl) = N[C@@H](Cc1nnn[nH]1)C(=O)O

In one experiment the target is T1, PAC1 receptor (UniProt P41586 21-468, limits assumed).
T1 sequence (looked up): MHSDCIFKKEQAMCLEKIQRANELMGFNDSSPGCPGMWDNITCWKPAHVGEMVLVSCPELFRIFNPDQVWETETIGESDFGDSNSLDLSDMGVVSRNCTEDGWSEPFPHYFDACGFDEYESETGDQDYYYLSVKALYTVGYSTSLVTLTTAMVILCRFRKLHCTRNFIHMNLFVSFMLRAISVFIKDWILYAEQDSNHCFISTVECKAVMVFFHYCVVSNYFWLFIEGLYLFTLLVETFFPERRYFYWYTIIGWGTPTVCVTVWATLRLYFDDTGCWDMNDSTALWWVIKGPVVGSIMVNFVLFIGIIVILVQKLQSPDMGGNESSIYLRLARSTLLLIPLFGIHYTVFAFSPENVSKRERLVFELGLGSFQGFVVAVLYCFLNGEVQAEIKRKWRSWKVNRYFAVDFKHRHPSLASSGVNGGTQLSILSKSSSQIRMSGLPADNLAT
The experiment can be described thus: cell-based or functional assay.

In the next experiment the target is T2, VPAC1 receptor (UniProt P32241 31-457, limits assumed).
T2 sequence (looked up): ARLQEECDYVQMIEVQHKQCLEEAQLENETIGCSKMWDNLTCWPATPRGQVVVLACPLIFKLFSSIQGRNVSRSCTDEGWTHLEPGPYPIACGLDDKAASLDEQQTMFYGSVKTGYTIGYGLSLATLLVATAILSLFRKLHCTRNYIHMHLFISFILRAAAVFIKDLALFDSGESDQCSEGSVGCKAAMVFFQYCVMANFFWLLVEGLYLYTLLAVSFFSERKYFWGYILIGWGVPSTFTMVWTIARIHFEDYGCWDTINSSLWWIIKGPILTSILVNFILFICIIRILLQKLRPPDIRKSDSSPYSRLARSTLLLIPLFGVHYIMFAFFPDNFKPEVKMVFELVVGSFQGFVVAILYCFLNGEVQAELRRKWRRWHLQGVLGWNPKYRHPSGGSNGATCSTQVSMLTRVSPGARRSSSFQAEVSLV
The experiment can be described thus: cell-based or functional assay.

B1: Peptide 24 (peptide)
peptide: Ac-HA[Ala(1H-tetrazol-5-yl)]GIFT[Ala(1H-tetrazol-5-yl)]AYSRYRKQLAVKKYLAAVL-NH2
SMILES: CC[C@H](C)[C@H](NC(=O)CNC(=O)[C@H](Cc1nnn[nH]1)NC(=O)[C@H](C)NC(=O)[C@H](Cc1c[nH]cn1)NC(C)=O)C(=O)N[C@@H](Cc1ccccc1)C(=O)N[C@H](C(=O)N[C@@H](Cc1nnn[nH]1)C(=O)N[C@@H](C)C(=O)N[C@@H](Cc1ccc(O)cc1)C(=O)N[C@@H](CO)C(=O)N[C@@H](CCCNC(=N)N)C(=O)N[C@@H](Cc1ccc(O)cc1)C(=O)N[C@@H](CCCNC(=N)N)C(=O)N[C@@H](CCCCN)C(=O)N[C@@H](CCC(N)=O)C(=O)N[C@@H](CC(C)C)C(=O)N[C@@H](C)C(=O)N[C@H](C(=O)N[C@@H](CCCCN)C(=O)N[C@@H](CCCCN)C(=O)N[C@@H](Cc1ccc(O)cc1)C(=O)N[C@@H](CC(C)C)C(=O)N[C@@H](C)C(=O)N[C@@H](C)C(=O)N[C@H](C(=O)N[C@@H](CC(C)C)C(N)=O)C(C)C)C(C)C)[C@@H](C)O
Turning to B1, the “EC50 (PAC1R), cAMP inducing effect” value in the experiment with PAC1 receptor came to 0.083 nM. For the same molecule, in the experiment with VPAC1 receptor, the “EC50 (VPAC1R), cAMP inducing effect” value came out at 0.088 nM.

B2: Peptide 26 (peptide)
peptide: Ac-HS[Ala(1H-tetrazol-5-yl)]GIFT[Ala(1H-tetrazol-5-yl)]AYSRYRKALAVKKYLAAVL-NH2
SMILES: CC[C@H](C)[C@H](NC(=O)CNC(=O)[C@H](Cc1nnn[nH]1)NC(=O)[C@H](CO)NC(=O)[C@H](Cc1c[nH]cn1)NC(C)=O)C(=O)N[C@@H](Cc1ccccc1)C(=O)N[C@H](C(=O)N[C@@H](Cc1nnn[nH]1)C(=O)N[C@@H](C)C(=O)N[C@@H](Cc1ccc(O)cc1)C(=O)N[C@@H](CO)C(=O)N[C@@H](CCCNC(=N)N)C(=O)N[C@@H](Cc1ccc(O)cc1)C(=O)N[C@@H](CCCNC(=N)N)C(=O)N[C@@H](CCCCN)C(=O)N[C@@H](C)C(=O)N[C@@H](CC(C)C)C(=O)N[C@@H](C)C(=O)N[C@H](C(=O)N[C@@H](CCCCN)C(=O)N[C@@H](CCCCN)C(=O)N[C@@H](Cc1ccc(O)cc1)C(=O)N[C@@H](CC(C)C)C(=O)N[C@@H](C)C(=O)N[C@@H](C)C(=O)N[C@H](C(=O)N[C@@H](CC(C)C)C(N)=O)C(C)C)C(C)C)[C@@H](C)O
Turning to B2, in the experiment with PAC1 receptor, the “EC50 (PAC1R), cAMP inducing effect” value was determined as 0.066 nM. Further, the “EC50 (VPAC1R), cAMP inducing effect” value in the experiment with VPAC1 receptor is 0.075 nM.

B3: Peptide 22 (peptide)
peptide: Ac-HS[Ala(1H-tetrazol-5-yl)]GIFT[Ala(1H-tetrazol-5-yl)]SYSRYRRQLAVRRYLAAVLGRR-NH2
SMILES: CC[C@H](C)[C@H](NC(=O)CNC(=O)[C@H](Cc1nnn[nH]1)NC(=O)[C@H](CO)NC(=O)[C@H](Cc1c[nH]cn1)NC(C)=O)C(=O)N[C@@H](Cc1ccccc1)C(=O)N[C@H](C(=O)N[C@@H](Cc1nnn[nH]1)C(=O)N[C@@H](CO)C(=O)N[C@@H](Cc1ccc(O)cc1)C(=O)N[C@@H](CO)C(=O)N[C@@H](CCCNC(=N)N)C(=O)N[C@@H](Cc1ccc(O)cc1)C(=O)N[C@@H](CCCNC(=N)N)C(=O)N[C@@H](CCCNC(=N)N)C(=O)N[C@@H](CCC(N)=O)C(=O)N[C@@H](CC(C)C)C(=O)N[C@@H](C)C(=O)N[C@H](C(=O)N[C@@H](CCCNC(=N)N)C(=O)N[C@@H](CCCNC(=N)N)C(=O)N[C@@H](Cc1ccc(O)cc1)C(=O)N[C@@H](CC(C)C)C(=O)N[C@@H](C)C(=O)N[C@@H](C)C(=O)N[C@H](C(=O)N[C@@H](CC(C)C)C(=O)NCC(=O)N[C@@H](CCCNC(=N)N)C(=O)N[C@@H](CCCNC(=N)N)C(N)=O)C(C)C)C(C)C)[C@@H](C)O
Take B3: the “EC50 (PAC1R), cAMP inducing effect” value in the experiment with PAC1 receptor was found to be 0.13 nM. The “EC50 (VPAC1R), cAMP inducing effect” value with VPAC1 receptor worked out at 0.457 nM.

B4: Peptide 25 (peptide)
peptide: Ac-HA[Ala(1H-tetrazol-5-yl)]GIFT[Ala(1H-tetrazol-5-yl)]SYSRYRKQAAVKKYLAAVL-NH2
SMILES: CC[C@H](C)[C@H](NC(=O)CNC(=O)[C@H](Cc1nnn[nH]1)NC(=O)[C@H](C)NC(=O)[C@H](Cc1c[nH]cn1)NC(C)=O)C(=O)N[C@@H](Cc1ccccc1)C(=O)N[C@H](C(=O)N[C@@H](Cc1nnn[nH]1)C(=O)N[C@@H](CO)C(=O)N[C@@H](Cc1ccc(O)cc1)C(=O)N[C@@H](CO)C(=O)N[C@@H](CCCNC(=N)N)C(=O)N[C@@H](Cc1ccc(O)cc1)C(=O)N[C@@H](CCCNC(=N)N)C(=O)N[C@@H](CCCCN)C(=O)N[C@@H](CCC(N)=O)C(=O)N[C@@H](C)C(=O)N[C@@H](C)C(=O)N[C@H](C(=O)N[C@@H](CCCCN)C(=O)N[C@@H](CCCCN)C(=O)N[C@@H](Cc1ccc(O)cc1)C(=O)N[C@@H](CC(C)C)C(=O)N[C@@H](C)C(=O)N[C@@H](C)C(=O)N[C@H](C(=O)N[C@@H](CC(C)C)C(N)=O)C(C)C)C(C)C)[C@@H](C)O
Consider B4, for which the “EC50 (PAC1R), cAMP inducing effect” value with PAC1 receptor is 0.088 nM. Further, in the experiment with VPAC1 receptor, the “EC50 (VPAC1R), cAMP inducing effect” value was 0.028 nM.

B5: Peptide 28 (peptide)
peptide: Ac-HS[Ala(1H-tetrazol-5-yl)]GIFT[Ala(1H-tetrazol-5-yl)]SYSRYRKAAAVKKYLAAVL-NH2
SMILES: CC[C@H](C)[C@H](NC(=O)CNC(=O)[C@H](Cc1nnn[nH]1)NC(=O)[C@H](CO)NC(=O)[C@H](Cc1c[nH]cn1)NC(C)=O)C(=O)N[C@@H](Cc1ccccc1)C(=O)N[C@H](C(=O)N[C@@H](Cc1nnn[nH]1)C(=O)N[C@@H](CO)C(=O)N[C@@H](Cc1ccc(O)cc1)C(=O)N[C@@H](CO)C(=O)N[C@@H](CCCNC(=N)N)C(=O)N[C@@H](Cc1ccc(O)cc1)C(=O)N[C@@H](CCCNC(=N)N)C(=O)N[C@@H](CCCCN)C(=O)N[C@@H](C)C(=O)N[C@@H](C)C(=O)N[C@@H](C)C(=O)N[C@H](C(=O)N[C@@H](CCCCN)C(=O)N[C@@H](CCCCN)C(=O)N[C@@H](Cc1ccc(O)cc1)C(=O)N[C@@H](CC(C)C)C(=O)N[C@@H](C)C(=O)N[C@@H](C)C(=O)N[C@H](C(=O)N[C@@H](CC(C)C)C(N)=O)C(C)C)C(C)C)[C@@H](C)O
Regarding B5, the “EC50 (PAC1R), cAMP inducing effect” value in the experiment with PAC1 receptor stood at 0.084 nM. Also, the “EC50 (VPAC1R), cAMP inducing effect” value with VPAC1 receptor is 0.029 nM.

B6: Peptide 27 (peptide)
peptide: Ac-HS[Ala(1H-tetrazol-5-yl)]GIFT[Ala(1H-tetrazol-5-yl)]AYSRYRKQAAVKKYLAAVL-NH2
SMILES: CC[C@H](C)[C@H](NC(=O)CNC(=O)[C@H](Cc1nnn[nH]1)NC(=O)[C@H](CO)NC(=O)[C@H](Cc1c[nH]cn1)NC(C)=O)C(=O)N[C@@H](Cc1ccccc1)C(=O)N[C@H](C(=O)N[C@@H](Cc1nnn[nH]1)C(=O)N[C@@H](C)C(=O)N[C@@H](Cc1ccc(O)cc1)C(=O)N[C@@H](CO)C(=O)N[C@@H](CCCNC(=N)N)C(=O)N[C@@H](Cc1ccc(O)cc1)C(=O)N[C@@H](CCCNC(=N)N)C(=O)N[C@@H](CCCCN)C(=O)N[C@@H](CCC(N)=O)C(=O)N[C@@H](C)C(=O)N[C@@H](C)C(=O)N[C@H](C(=O)N[C@@H](CCCCN)C(=O)N[C@@H](CCCCN)C(=O)N[C@@H](Cc1ccc(O)cc1)C(=O)N[C@@H](CC(C)C)C(=O)N[C@@H](C)C(=O)N[C@@H](C)C(=O)N[C@H](C(=O)N[C@@H](CC(C)C)C(N)=O)C(C)C)C(C)C)[C@@H](C)O
For the molecule B6, the “EC50 (PAC1R), cAMP inducing effect” value in the experiment with PAC1 receptor was determined as 0.06 nM. Besides, the “EC50 (VPAC1R), cAMP inducing effect” value with VPAC1 receptor stood at 0.044 nM.

B7: Peptide 23 (peptide)
peptide: HSXAIFTXSYSRYRKQLAVKKYLAAVL
modifications: N-terminal acetyl (Ac-); Tz (aspartic acid with carboxyl group replaced by tetrazole) at positions 3 and 8; C-terminal amide (NH2)
With B7, in the experiment with PAC1 receptor, the “EC50 (PAC1R), cAMP inducing effect” value is 0.079 nM. In addition, the “EC50 (VPAC1R), cAMP inducing effect” value with VPAC1 receptor was determined as 0.072 nM.

B8: Peptide 21 (peptide)
peptide: Ac-HS[Ala(1H-tetrazol-5-yl)]GIFT[Ala(1H-tetrazol-5-yl)]SYSRYRRQLAVRRYLAAVL-NH2
SMILES: CC[C@H](C)[C@H](NC(=O)CNC(=O)[C@H](Cc1nnn[nH]1)NC(=O)[C@H](CO)NC(=O)[C@H](Cc1c[nH]cn1)NC(C)=O)C(=O)N[C@@H](Cc1ccccc1)C(=O)N[C@H](C(=O)N[C@@H](Cc1nnn[nH]1)C(=O)N[C@@H](CO)C(=O)N[C@@H](Cc1ccc(O)cc1)C(=O)N[C@@H](CO)C(=O)N[C@@H](CCCNC(=N)N)C(=O)N[C@@H](Cc1ccc(O)cc1)C(=O)N[C@@H](CCCNC(=N)N)C(=O)N[C@@H](CCCNC(=N)N)C(=O)N[C@@H](CCC(N)=O)C(=O)N[C@@H](CC(C)C)C(=O)N[C@@H](C)C(=O)N[C@H](C(=O)N[C@@H](CCCNC(=N)N)C(=O)N[C@@H](CCCNC(=N)N)C(=O)N[C@@H](Cc1ccc(O)cc1)C(=O)N[C@@H](CC(C)C)C(=O)N[C@@H](C)C(=O)N[C@@H](C)C(=O)N[C@H](C(=O)N[C@@H](CC(C)C)C(N)=O)C(C)C)C(C)C)[C@@H](C)O
On to B8, for which the “EC50 (PAC1R), cAMP inducing effect” value with PAC1 receptor turned out to be 0.102 nM. For the same molecule, the “EC50 (VPAC1R), cAMP inducing effect” value in the experiment with VPAC1 receptor was 0.268 nM.
